From patent US10005846 (LIFEARC, dated 2018) come the findings set out here.

Residue numbers refer to the chain shown, from its start. Bounds are passed on as bounds.

For test [1], the target named is T1, cynomolgus monkey TG2 (cynomolgus monkey, UniProt A0A2K5VXI8 1-687).
T1 construct: Bought recombinant protein; also called cynomogulus monkey TG2; cyano TG2
T1 sequence: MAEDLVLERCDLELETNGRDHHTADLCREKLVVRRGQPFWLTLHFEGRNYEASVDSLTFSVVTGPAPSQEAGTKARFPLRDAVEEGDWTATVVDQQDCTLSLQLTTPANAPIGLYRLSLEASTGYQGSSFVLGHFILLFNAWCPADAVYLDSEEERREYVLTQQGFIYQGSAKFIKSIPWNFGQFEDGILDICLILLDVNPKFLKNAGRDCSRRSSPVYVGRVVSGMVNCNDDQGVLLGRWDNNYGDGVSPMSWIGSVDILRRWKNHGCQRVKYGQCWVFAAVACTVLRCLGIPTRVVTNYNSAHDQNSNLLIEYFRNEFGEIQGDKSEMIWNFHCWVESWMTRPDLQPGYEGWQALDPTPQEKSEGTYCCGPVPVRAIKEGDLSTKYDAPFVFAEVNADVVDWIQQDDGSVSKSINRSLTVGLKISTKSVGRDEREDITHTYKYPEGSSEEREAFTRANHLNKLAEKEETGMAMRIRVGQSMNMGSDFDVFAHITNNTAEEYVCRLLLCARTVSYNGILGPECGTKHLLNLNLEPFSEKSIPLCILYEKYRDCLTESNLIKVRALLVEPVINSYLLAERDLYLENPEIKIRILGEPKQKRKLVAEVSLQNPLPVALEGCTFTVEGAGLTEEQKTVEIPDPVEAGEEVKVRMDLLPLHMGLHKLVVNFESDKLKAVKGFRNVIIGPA
Briefly: SPR (Biacore T200), antibody captured on anti-human IgG1 Fc chip, TG2 injected; +Ca2+. As to the method:
Recombinant cynomolgus monkey TG2 was obtained from Trenzyme. Surface plasmon resonance (SPR) was measured on a Biacore T200 instrument (GE Healthcare). CM5 chips (GE Healthcare cat. no.: BR-1006-68) were coated with monoclonal mouse anti-human IgG1 (Fc) (MAH) antibody (GE Healthcare cat. no.: BR-1008-39) by amine-coupling as described in the manufacturers instructions. HBS-EP+ buffer (0.01 M HEPES, 0.15 M NaCl, 3 mM EDTA, 0.05% v/v Surfactant P20) and HBS-P+ buffer (0.01 M HEPES, 0.15 M NaCl, 0.05% Surfactant P20) were purchased from GE Healthcare as 10× stocks (cat. nos.: BR-1006-69 and BR-1006-71). Calcium Chloride solution was obtained from Sigma Aldrich (cat. no.:21115).
The method employed to determine the affinity of the anti-TG2 antibodies involved the capture of the chimeric or humanised antibodies on a MAH coated CM5 chip, followed by the injection of a series of TG2 samples in running buffer. The running buffer was 1×HBS-P+ containing 1 mM CaCl_2, or 1×HBS-EP+ for calcium-free experiments. Antibody capture was carried out for a contact time of 120 seconds at a flow rate of 10 μl/min resulting in the capture of approximately 40-80 RU. TG2 was injected over the immobilised antibody at concentrations ranging from 25 nM to 400 nM with a contact time up to 600 seconds at a flow rate of 30 μl/min. Dissociation of TG2 was typically measured for up to 5400 seconds (1.5 hours). Regeneration of the chip was then performed using 3 M MgCl_2, for a contact time of 60 seconds at a flow rate of […], followed by a 300 s stabilisation period before the next sample. For each of human and cynomolgus monkey TG2, at least 5 injections at a variety of concentrations were performed in at least two separate experiments.
Kinetic data were exported from the Biacore T200 Evaluation Software and analysed using GraphPad Prism, where the association phases and dissociation phases were analysed separately using a one phase association model and one-phase exponential decay model respectively. Association rates ($kon$) were calculated for each curve individually, and dissociation rates ($koff$) values from the long dissociation phase data collected. Where $koff$ values were calculated to be $<1\times10^-5$ s^-1, values were set at 1×10^-5 for analysis, as rates slower than this could not be estimated accurately.

The target in test [2] is T2, rat TG2 (rat, UniProt Q9WVJ6 1-686, limits assumed).
T2 sequence: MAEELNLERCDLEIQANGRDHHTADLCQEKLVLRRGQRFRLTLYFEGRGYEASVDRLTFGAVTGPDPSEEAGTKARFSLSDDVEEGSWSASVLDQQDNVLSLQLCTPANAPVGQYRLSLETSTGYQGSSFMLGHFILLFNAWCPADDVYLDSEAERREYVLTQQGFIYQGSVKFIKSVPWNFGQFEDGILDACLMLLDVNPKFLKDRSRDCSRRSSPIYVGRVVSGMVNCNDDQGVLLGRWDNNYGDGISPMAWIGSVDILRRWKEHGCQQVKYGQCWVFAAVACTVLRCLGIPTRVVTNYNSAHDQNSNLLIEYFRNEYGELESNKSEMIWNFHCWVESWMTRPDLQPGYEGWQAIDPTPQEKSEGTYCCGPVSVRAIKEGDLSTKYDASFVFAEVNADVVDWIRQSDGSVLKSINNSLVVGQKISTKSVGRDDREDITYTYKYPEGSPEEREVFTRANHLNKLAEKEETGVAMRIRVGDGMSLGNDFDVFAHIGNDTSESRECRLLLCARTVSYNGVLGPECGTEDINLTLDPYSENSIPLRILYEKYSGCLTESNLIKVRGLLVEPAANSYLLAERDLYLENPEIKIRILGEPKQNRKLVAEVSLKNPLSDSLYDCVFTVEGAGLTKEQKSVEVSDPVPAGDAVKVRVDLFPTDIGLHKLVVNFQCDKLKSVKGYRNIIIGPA
Briefly: western blot and ELISA.

B1: cBB001 chimeric antibody (murine BB7 variable regions) (antibody, human IgG1, V domains shown)
VH: AVQLVESGGGLVKPGGSLKLSCAASGIIFSSSAMSWVRQTPEKRLEWVATISSGGRSTYYPDSVKGRFTVSRDSAKNTLYLQMDSLRSEDTAIYYCAKLISPYWGQGTTLTVSS
VL: AIKMTQSPSSMYASLGERVIITCKASQDINSYLTWFQQKPGKSPKTLIYLTNRLMDGVPSRFSGSGSGQEFLLTISGLEHEDMGIYYCLQYVDFPYTFGGGTKLEIK
notes: also called chimeric BB7
In test [1], B1 showed an equilibrium dissociation constant (Kd) of under 0.03 nM, a koff of under 1e-05 s⁻¹ and a kon of 290000 M⁻¹ s⁻¹.

B2: DC1 murine monoclonal antibody (antibody, V domains shown)
VH: EVQLVESGGGLVKPGGSLKLSCAASGFTLSTHAMSWVRQTPEKRLEWVATISSGGRSTYYPDSVKGRFTISRDNVKNTLYLQLSSLRSEDTAVYFCARLISTYWGQGTTLTVSS
VL: DITMTQSPSSIYASLGERVTITCKASQDINSYLTWFQQKPGKSPKILIYLVNRLVDGVPSRFSGSGSGQDYALTISSLEYEDMGIYYCLQYDDFPYTFGGGTKLEIK
notes: Mouse hybridoma IgG; heavy chain amplified with primer MHCG1, kappa light chain; also called mDC001
In the case of B2, the binding result in test [2] was “binds”.

B3: cDH001 chimeric antibody (murine DH2 variable regions) (antibody, human IgG1, V domains shown)
VH: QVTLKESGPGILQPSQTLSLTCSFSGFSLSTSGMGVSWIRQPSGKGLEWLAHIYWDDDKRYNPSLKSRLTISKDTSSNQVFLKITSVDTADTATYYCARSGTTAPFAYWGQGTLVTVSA
VL: QIVLTQSPAIMSASPGEKVTMTCSASSSVSYMYWYQQKPGSSPRLLIYDTSNLASGVPVRFSGSGSGTSYSLTISRMEAEDAATFYCQQWSSSPLTFGAGTKLELK
In test [1], B3 returned a Kd of under 0.7 nM, a koff of under 1e-05 s⁻¹ and a kon of 15000 M⁻¹ s⁻¹.

B4: cDD9001 chimeric antibody (murine DD9 variable regions) (antibody, human IgG1, V domains shown)
VH: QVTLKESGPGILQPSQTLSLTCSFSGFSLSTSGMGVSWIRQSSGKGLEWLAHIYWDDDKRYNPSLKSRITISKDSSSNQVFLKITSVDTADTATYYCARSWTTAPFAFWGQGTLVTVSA
VL: B3 VL with S30D, E78G, F85Y, S91N
B4: in test [1], the affinity, expressed as Kd, was 0.52 nM; the koff worked out at 1.6e-05 s⁻¹; the kon stood at 31000 M⁻¹ s⁻¹.

B5: JE12 murine monoclonal antibody (antibody, V domains shown)
VH: EVQLQQSGPELVKPGASVKMSCKASGYRFTSYVMHWVKQKSGQGLEWIGYINPYNDGAKYNEKFKGKATLTSDKSSSTAYMELSSLTSEDSAVYYCARLSSDYWGQGTTLTVSS
VL: DVLMTQNPLSLPVSLGDQASISCRSSQSIEHINGNTYLEWYLQKPGQSPKFLIYKVSNRFSGVPDRFSGSGSGTDFTLRISRVEAEDLGIYYCFQGSHVPFTFGGGTKLEIK
notes: Mouse hybridoma IgG; heavy chain amplified with primer MHCG1, kappa light chain
Regarding B5, the binding result in test [2] is recorded as “binds”.
